Source: the supplement of paper PMC9170038

Test system: MS2 coat protein
Assay: apparent KD of MS2 coat protein; higher = weaker reporter binding
Details: Eterna round: R107
How it was run: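 With or without constant ligand, designed RNA switches in 100 mM Tris-HCl pH 7.5, 80 mM KCl and 4 mM MgCl2 were titrated with SNAP-549-labelled MS2 coat protein. Concentrations went up in twofold steps from 0.7 or 1.5 nM to 3 µM. The switches had been transcribed on-chip from Illumina sequencing clusters, and apparent KD is the per-design median of normalised cluster binding-curve fits.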

[1] = input ligand: theophylline 20 uM
[2] = input ligand: theophylline 2 mM
[3] = input ligand: tryptophan 2.4 mM

Row | Sequence | apparent KD of MS2 coat protein (input ligand: arginine 13.2 mM) | apparent KD of MS2 coat protein (input ligand: none) | apparent KD of MS2 coat protein [1] | apparent KD of MS2 coat protein [2] | apparent KD of MS2 coat protein [3]
1 | UUAUUUAACGGAAGGAGCGCGGAAAUAAAAGUGGGUAAACAUGAGGAUCACCCAUGUAAACCGCAGGUAGGUCGCCGAUAUUUAU [AstrosEXyARgB#2] | 37 nM | 76.9 nM | 93.9 nM | 95.4 nM | 59.4 nM
2 | UUAUUUAUAUUAGAUACCAGUUUAAUGGCCGCAAAUCCUGACAUGAGGAUCACCCAUGUAAGCCCUUGGCAGCUGGUAUGGGUUU [XTheo B #26] | 25.2 nM | – | 25.2 nM | – | 20.5 nM
3 | UUCAGCUAGUCGGCCGCCACUACCUGAGGAUCACCCUGGUAAUCCUAACACUGCUUCGGCAGUGGUAGGACCGGGACUAGCUGAG | 27.7 nM | 28.2 nM | 39.7 nM | 32.6 nM | 225 nM
4 | UUCAGCUAGUCGGCCGCCACUAUCUGAGGAUCACCCAGGUAAUCCUAACACUGCUUCGGCAGUGGUAGGACCGGGACUAGCUGAG | 8.18 nM | 14.5 nM | 26.3 nM | 20 nM | 10.6 nM
5 | UUCGUUGGCGAUCUGGGUUUACCAGAUCGGCGAGGACCGGUACGGCCGCCACUCGUGUUUUCUUUACAUGAGGAUCACCCAUGUU [SSTA #3] | 16.9 nM | – | 25.3 nM | 25.5 nM | –
6 | UUGGGUUUGCGAAGGAGCGGGAAAUAUAUAUAUAUAAUCCUAACAUGAGGAUCACCCAUGUCCCAGGUAGGUCGCGCAGGUUUGG [12.L] | 58.1 nM | 54.2 nM | 81.8 nM | 73.2 nM | 58.7 nM
7 | UUGUUGUUUGGAAGGAGCGUGGAUGAGUGAGAACAUGAGGAUCACCCAUGUUGUAUGAUACCGCAGGUAGGUCGCCGGGUGGUGG [11.aB] | 16.9 nM | 18.1 nM | 39.6 nM | 21.5 nM | 17.5 nM
8 | UUGUUGUUUGGAAGGAGCGUGUAAGAUUAAGAACAUGAGGAUCACCCAUGUUUUAAGGGAACACAGGUAGGUCGCCGGGUGGUGG [11.R] | 15.5 nM | 13.9 nM | 19 nM | 14.8 nM | 15.6 nM
9 | UUUAAAAUCAGAAGGAGCGUGAUAAACAUGAGGAUCACCCAUGUCGAAAAUUUAAUAUAAUCACAGGUAGGUCGCUGUAAUAUUU [Same State - Ariginine B] | 14.2 nM | 14 nM | 18.6 nM | 16.5 nM | 14.2 nM
10 | UUUGAUAGGACAGAUACCAGCGUGUUAUAGAACAUGAGGAUCACCCAUGUAGUGAUCAAGCGCCCUUGGCAGCUGGUUUGUUAGG [7.K] | 119 nM | – | 350 nM | – | 196 nM
11 | UUUGCACAUGAGGAUCACCCAUGUACAGAUACCAGCCUCAUCUACGGCCCUUGGCAGCUGAGACAAUGGUGACAUGAUGGGCUUU [Istein] | 16 nM | – | 20.4 nM | – | 12.3 nM
12 | UUUUACAUGAGGAUCACCCAUGUGCGGCGCCGAGGACCGGUACGGCCGCCACUCGCAUGGGCAUGCCGCGAUAUCAUUCCUGAAC [theeternabot_sameState_MS2_Trp_A_43] | 53.6 nM | – | 249 nM | 306 nM | –
13 | UUUUUCAUAGGUUAUAGUUUAGAAACUGAAGGAGCGUGGUAAUACACAGGUAGGUCGCAGAUUUUACAUGAGGAUCACCCAUGUU [JR_ExcArginiA_Sub014] | 22.1 nM | 23.2 nM | 27.3 nM | 27 nM | 25.6 nM
14 | UUUUUUAACUGAAGGAGCGUCACAUGAGGAUCACCCAUGUAUUAGAUGAGAAUGAUCUUGUGGCAGGUAGGUCGCAGAGGAAGGG [#30 Exclusion - Arginine B] | 521 nM | 327 nM | 167 nM | 271 nM | 370 nM
